Consider 3 molecules from patent US20260167714A1 (COHERUS BIOSCIENCES, published 2026).

Test [1] concerns the target T1, human ILT4 expressed on cells (human, UniProt Q8N423 22-597).
T1 construct: whole, on cells; The same entry is used for endogenous ILT4 of human macrophages; also called CHO-S/ILT4 cells; ILT4-CHO cells
As to the kind of experiment: flow based HLA-G blocking assay.

Test [2] addresses T2, recombinant human ILT4 (LILRB2) (human, UniProt Q8N423 22-460).
T2 construct: Bought protein (Acro Biosystems or R&D Systems); also called ILTR4
As to the kind of experiment: KinExA, solution equilibrium, n-curve analysis. On the procedure: Kinetic Exclusion Assay (KinExA®) was performed to measure the equilibrium binding affinity and kinetics between human ILT4 and four humanized LALA-Fc modified antibodies in solution. For affinity analysis, the equilibrium dissociation constant, KD, was experimentally determined and reflects the strength of the binding interaction. The rate of association, kₒₙ, was also experimentally determined, while the rate of dissociation, koff, is calculated based on the following equation: koff=KD×kₒₙ
The binding affinity (KD), association (kₒₙ), and dissociation rate constants (koff) were measured for 4 different Humanized LALA IgG antibodies to ILT4 using KinExA. An n-curve analysis of at least two different curves, run at two different CBP concentrations, was used to determine the KD of the interactions The ILT4 was used as the concentration reference for all curves. All of the binding systems have low error and well defined 95% confidence intervals giving confidence to the measurements: […]
Background: Kinetic exclusion samples the free partner from a solution-phase mixture.

Test [3] addresses T2, recombinant human ILT4 (LILRB2). Briefly: SPR, high resolution kinetics, triplicate, LALA antibody. In general terms: SPR reads the build-up and loss of mass on a sensor chip optically.
The target in test [4] is T3, LILRA1 (human, UniProt O75019 17-461).
T3 construct: Bought protein; limits of the extracellular domain are marked by bold type not visible here; whole entry named; also called recombinant human LILRA1
T3 sequence (O75019 other isoform, or with tags, fused parts or gaps): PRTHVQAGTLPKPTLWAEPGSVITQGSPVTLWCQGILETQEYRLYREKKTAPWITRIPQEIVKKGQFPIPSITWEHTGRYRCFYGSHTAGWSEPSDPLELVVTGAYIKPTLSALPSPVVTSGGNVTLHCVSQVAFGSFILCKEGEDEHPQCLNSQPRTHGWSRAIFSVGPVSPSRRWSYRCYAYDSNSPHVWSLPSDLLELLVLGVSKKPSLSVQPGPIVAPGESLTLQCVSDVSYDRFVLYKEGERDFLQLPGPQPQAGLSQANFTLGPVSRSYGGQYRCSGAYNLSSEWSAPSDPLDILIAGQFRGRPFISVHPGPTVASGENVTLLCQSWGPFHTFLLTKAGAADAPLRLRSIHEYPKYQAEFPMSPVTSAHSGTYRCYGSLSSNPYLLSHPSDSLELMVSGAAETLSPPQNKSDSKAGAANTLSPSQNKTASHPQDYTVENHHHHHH
As to the kind of experiment: SPR, Biacore 8K, mAb captured on anti-human Fc, analyte injected. On the procedure: (§1) SPR was used to determine the specificity of four humanized anti-ILT4 mAbs for binding to LILRB2 and to determine any cross-reactivity with nine other LILRA and LILRB family members. LILR proteins were purchased from Acro Biosystems or R&D Systems, with sequence provided below. The studies were performed with a Biacore 8K instrument using a CM4 sensor chip with a running buffer of HBS-P+, 100 μg/mL BSA. Anti-human Fc specific capture surfaces were prepared using standard amine coupling chemistry. MAb was captured to flow cell 2 with flow cell 1 serving as the reference flow cell. Each of the nine family members and LILRB2 were injected at 100 nM at 30 μL/min for 90 sec with 240 sec of dissociation. […] All sensorgrams were doubled-referenced during processing of the data.

In test [5] the target is T4, LILRA2 (human, UniProt Q8N149 24-449).
T4 construct: Bought protein; limits of the extracellular domain are marked by bold type not visible here; whole entry named; also called recombinant human LILRA2
T4 sequence (Q8N149 other isoform, or with tags, fused parts or gaps): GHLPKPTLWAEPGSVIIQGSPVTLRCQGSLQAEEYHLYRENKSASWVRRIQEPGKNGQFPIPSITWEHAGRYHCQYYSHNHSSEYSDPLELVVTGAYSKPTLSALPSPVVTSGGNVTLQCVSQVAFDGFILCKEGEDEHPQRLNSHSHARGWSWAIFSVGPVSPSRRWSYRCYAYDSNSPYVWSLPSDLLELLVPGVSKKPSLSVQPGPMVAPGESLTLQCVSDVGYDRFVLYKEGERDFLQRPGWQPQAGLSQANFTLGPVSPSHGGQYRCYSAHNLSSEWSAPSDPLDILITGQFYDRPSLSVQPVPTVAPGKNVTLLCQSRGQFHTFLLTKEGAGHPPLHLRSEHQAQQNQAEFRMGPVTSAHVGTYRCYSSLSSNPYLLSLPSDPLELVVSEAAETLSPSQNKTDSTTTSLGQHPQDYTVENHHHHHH
The description is as above. On the procedure: as §1

For test [6], the target named is T5, LILRA3 (human, UniProt Q8N6C8 24-439).
T5 construct: Bought protein; limits of the part used are marked by bold type not visible here; whole entry named; also called recombinant human LILRA3
T5 sequence (Q8N6C8 24-439 A105V limits assumed): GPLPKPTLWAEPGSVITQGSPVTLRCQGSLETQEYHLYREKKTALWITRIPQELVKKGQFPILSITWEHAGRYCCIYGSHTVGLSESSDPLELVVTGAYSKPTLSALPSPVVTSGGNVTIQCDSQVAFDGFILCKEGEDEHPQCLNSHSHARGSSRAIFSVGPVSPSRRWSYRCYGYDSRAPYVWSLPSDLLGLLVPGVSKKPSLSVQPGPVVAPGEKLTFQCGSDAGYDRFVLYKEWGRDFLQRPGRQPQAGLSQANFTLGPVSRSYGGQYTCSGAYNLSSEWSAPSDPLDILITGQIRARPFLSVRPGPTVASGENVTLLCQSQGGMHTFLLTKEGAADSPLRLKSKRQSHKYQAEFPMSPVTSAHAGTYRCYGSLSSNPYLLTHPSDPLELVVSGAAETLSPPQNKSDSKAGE
The test is described as above. On the procedure: as §1

Test [7] deals with T6, LILRA4 (human, UniProt P59901 24-446).
T6 construct: Bought protein; limits of the extracellular domain are marked by bold type not visible here; whole entry named; also called recombinant human LILRA4
T6 sequence (P59901 other isoform, or with tags, fused parts or gaps): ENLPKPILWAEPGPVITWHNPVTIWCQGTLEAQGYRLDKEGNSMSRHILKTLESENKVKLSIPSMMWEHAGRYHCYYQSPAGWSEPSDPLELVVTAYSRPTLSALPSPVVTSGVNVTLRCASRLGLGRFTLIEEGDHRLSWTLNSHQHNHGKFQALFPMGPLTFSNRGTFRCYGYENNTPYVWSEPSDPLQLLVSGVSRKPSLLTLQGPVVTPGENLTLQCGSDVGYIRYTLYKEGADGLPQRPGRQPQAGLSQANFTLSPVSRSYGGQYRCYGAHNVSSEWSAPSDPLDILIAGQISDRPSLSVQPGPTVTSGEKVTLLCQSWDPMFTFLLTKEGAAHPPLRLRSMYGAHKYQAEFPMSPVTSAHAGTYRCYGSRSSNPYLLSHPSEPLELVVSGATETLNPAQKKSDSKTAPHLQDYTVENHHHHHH
Described as above. On the procedure: as §1

The target of test [8] is T7, LILRA5 (human, UniProt A6NI73 42-268).
T7 construct: Bought protein; limits of the extracellular domain are marked by bold type not visible here; whole entry named; also called recombinant human LILRA5
T7 sequence (A6NI73 other isoform, or with tags, fused parts or gaps): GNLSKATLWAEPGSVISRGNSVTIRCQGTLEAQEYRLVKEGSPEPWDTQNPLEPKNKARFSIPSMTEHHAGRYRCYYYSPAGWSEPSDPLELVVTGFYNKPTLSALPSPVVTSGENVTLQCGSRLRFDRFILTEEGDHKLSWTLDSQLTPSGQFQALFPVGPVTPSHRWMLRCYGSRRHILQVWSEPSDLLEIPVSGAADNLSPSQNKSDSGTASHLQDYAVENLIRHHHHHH
The test is described as above. On the procedure: as §1

Test [9] deals with T8, LILRA6 (human, UniProt Q6PI73 24-447).
T8 construct: Bought protein; limits of the extracellular domain are marked by bold type not visible here; whole entry named; also called recombinant human LILRA6
T8 sequence (Q6PI73 other isoform, or with tags, fused parts or gaps): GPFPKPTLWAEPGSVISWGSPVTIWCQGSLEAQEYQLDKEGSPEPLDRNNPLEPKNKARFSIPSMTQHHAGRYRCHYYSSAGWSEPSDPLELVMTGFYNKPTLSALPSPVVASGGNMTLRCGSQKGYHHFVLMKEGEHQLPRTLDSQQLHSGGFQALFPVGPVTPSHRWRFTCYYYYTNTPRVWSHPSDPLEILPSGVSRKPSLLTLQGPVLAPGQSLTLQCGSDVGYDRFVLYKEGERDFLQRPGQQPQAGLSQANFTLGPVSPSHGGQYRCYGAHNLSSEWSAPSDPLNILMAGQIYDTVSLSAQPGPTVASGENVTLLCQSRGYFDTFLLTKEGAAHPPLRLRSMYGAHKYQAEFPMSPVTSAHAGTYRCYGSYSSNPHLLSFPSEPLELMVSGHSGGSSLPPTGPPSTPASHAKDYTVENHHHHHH
The test is described as above. On the procedure:
as §1

Test [10] deals with T9, LILRB1 (human, UniProt Q8NHL6 24-461).
T9 construct: Bought protein; limits of the extracellular domain are marked by bold type not visible here; whole entry named; also called recombinant human LILRB1; ILT2
T9 sequence (Q8NHL6 other isoform, or with tags, fused parts or gaps): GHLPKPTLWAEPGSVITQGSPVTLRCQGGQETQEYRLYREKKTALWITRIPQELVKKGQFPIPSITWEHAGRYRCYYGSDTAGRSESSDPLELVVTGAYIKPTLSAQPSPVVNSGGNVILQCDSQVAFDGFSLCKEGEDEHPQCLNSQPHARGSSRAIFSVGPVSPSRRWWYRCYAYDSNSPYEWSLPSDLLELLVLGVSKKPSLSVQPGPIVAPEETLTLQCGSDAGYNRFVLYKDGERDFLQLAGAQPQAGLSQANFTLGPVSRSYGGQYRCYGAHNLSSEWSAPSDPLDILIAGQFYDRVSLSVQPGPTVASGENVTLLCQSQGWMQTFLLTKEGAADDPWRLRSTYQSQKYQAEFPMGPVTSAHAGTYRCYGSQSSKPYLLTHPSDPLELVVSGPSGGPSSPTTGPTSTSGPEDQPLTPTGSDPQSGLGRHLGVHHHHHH
Described as above. On the procedure: as §1

For test [11], the target named is T10, LILRB3 (human, UniProt O75022 24-443).
T10 construct: Bought protein; limits of the extracellular domain are marked by bold type not visible here; whole entry named; also called recombinant human LILRB3; ILT5
T10 sequence (O75022 other isoform, or with tags, fused parts or gaps): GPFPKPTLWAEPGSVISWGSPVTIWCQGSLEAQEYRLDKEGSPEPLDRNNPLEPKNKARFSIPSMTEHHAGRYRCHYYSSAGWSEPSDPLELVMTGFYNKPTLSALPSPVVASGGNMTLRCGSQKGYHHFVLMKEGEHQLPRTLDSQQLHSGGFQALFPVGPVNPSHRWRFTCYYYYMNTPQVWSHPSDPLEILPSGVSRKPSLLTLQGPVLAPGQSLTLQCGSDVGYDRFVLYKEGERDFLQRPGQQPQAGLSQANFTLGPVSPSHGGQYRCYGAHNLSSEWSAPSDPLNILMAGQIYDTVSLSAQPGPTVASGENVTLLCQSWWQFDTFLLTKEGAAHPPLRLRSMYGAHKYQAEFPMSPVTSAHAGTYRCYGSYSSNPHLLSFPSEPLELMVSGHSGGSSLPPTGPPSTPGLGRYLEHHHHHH
The description is as above. On the procedure:
as §1

The target of test [12] is T11, LILRB4 (human, UniProt Q8NHJ6 22-259).
T11 construct: Bought protein; limits of the extracellular domain are marked by bold type not visible here; whole entry named; also called recombinant human LILRB4; ILT3
T11 sequence (Q8NHJ6 other isoform, or with tags, fused parts or gaps): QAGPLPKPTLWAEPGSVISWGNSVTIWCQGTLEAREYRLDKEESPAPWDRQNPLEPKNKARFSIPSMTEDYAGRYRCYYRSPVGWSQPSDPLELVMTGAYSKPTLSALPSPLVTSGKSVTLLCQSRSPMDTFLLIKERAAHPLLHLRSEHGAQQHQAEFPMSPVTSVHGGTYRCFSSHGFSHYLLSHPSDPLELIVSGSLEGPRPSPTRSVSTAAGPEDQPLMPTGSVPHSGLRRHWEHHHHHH
Described as above. On the procedure: as §1

For test [13], the target named is T2, recombinant human ILT4 (LILRB2). As to the kind of experiment: SPR, Biacore T200, medium resolution; koff held at its limit of 4.27e-5 s^-1. On the procedure: (§2) Label-free SPR analysis on a Biacore T200 instrument was utilized to measure antibody affinity to ILT4. CM4 sensor chips from Cytiva Inc. were utilized for all medium resolution analyses. Either anti-mouse Fc specific or anti-human Fc specific capture surfaces were prepared using standard amine coupling chemistry. Mouse, Chimera or Humanized mAbs were captured to their respective surfaces and ILT4 was injected across the surfaces from 101 nM to 0.79 nM in a 2-fold serial dilution series at a flow rate of 100 μL/min. The association phase was followed for 90 sec. while the dissociation phase was followed for 1200 sec. due to the medium resolution analysis implemented here. The sensorgrams were double-referenced and fit globally to a 1:1 interaction model with a term included for mass transport, and the equilibrium dissociation constant was calculated as KD=koff/kₒₙ. […] All kinetic experiments were performed at 25° C. in a buffer consisting of Hepes-buffered saline, pH 7.4, with 0.05% polysorbate 20 (HBS-P+) and 100 μg/ml Bovine Serum Albumin (BSA).

Test [14] has the same target. As to the kind of experiment: SPR, high resolution kinetics, triplicate, LALA antibody; 95% CI in parentheses.
The target is the same in test [15]. Briefly: SPR, Biacore T200, mAb captured on anti-Fc, ILT4 injected, medium resolution, 25 C. On the procedure:
as §2

Test [16] has the same target. As to the kind of experiment: SPR, Biacore 8K, mAb captured on anti-human Fc, LILRB2 at 100 nM; legend: ++++ tight binding (<100 pM KD). On the procedure: as §1
Test [17] has as its target T1, human ILT4 expressed on cells. Briefly: flow cytometry, blockade of PE-HLA-G tetramer binding to CHO-S/ILT4 cells, experiment 2. On the procedure: (§3) In the second blocking experiment, the primary antibody dilutions were made by diluting antibody to 15 μg/ml in FACS buffer. Three independent sets of eleven 2.5-fold serial dilutions were then made in FACS buffer from 15 μg/ml to 0.002 μg/ml. Each dilution set was handled independently, and 50 μl from each was added to cells in duplicate. Control wells received FACS buffer with no antibody. Wells were mixed and incubated for 30 minutes at 4 degrees C. Cells were washed twice in FACS buffer.
(§4) In both blocking experiments, phycoerythrin (PE)-conjugated HLA-G tetramer was diluted in FACS buffer to 5 μg/ml and 100 μl per well was added to cells. Cells were incubated at 4 degrees C. for 30 minutes, washed twice in FACS buffer, and resuspended in 250 μl FACS buffer with 0.1 μg/ml propidium iodide.
(§5) Cells were acquired on an Attune flow cytometer, with 5000 propidium iodide-negative cells collected per sample, and MFI was recorded. Relative blocking activity was calculated with the following formula: 100−(Sample MFI−Background MFI)/(Top MFI−Background MFI)*100. Prism software (Graphpad) was used to plot MFI and relative blocking activity for each sample. The blocking potency for each antibody, represented as IC₅₀, was calculated with Prism software.
Background: In flow cytometry, cells or beads pass a laser one at a time.

For test [18] the target is unchanged. As to the kind of experiment: flow cytometry, blockade of PE-HLA-G tetramer (5 µg/ml) binding to CHO-S/ILT4 cells, experiment 2. On the procedure: as §3, §4, §5
Test [19] has the same target. As to the kind of experiment: cell-based or functional assay.
The target is the same in test [20]. Briefly: flow cytometry blocking assay: ILT4-expressing CHO cells preincubated with antibody, then PE-HLA-G; HLA-G binding MFI falls from about 105000 (no antibody) to near 0. On the procedure: as §3, §4, §5

T1 sequence (Q8N423 22-597): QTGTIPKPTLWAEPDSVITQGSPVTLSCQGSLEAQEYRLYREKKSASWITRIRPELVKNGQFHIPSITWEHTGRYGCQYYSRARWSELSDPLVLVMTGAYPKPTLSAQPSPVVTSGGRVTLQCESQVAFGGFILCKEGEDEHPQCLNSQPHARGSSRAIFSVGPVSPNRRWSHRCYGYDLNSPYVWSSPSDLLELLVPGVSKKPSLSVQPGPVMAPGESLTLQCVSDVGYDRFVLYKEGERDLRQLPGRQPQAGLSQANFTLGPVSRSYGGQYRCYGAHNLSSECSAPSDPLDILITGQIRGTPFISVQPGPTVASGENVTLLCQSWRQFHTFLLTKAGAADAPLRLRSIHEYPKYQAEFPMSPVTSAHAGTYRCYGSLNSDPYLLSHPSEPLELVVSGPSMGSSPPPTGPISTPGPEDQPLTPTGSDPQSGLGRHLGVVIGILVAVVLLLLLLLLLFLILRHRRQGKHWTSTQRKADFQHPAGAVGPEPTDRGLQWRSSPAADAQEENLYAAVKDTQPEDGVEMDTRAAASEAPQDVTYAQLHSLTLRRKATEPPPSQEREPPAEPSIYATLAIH
T2 sequence (Q8N423 other isoform, or with tags, fused parts or gaps limits assumed): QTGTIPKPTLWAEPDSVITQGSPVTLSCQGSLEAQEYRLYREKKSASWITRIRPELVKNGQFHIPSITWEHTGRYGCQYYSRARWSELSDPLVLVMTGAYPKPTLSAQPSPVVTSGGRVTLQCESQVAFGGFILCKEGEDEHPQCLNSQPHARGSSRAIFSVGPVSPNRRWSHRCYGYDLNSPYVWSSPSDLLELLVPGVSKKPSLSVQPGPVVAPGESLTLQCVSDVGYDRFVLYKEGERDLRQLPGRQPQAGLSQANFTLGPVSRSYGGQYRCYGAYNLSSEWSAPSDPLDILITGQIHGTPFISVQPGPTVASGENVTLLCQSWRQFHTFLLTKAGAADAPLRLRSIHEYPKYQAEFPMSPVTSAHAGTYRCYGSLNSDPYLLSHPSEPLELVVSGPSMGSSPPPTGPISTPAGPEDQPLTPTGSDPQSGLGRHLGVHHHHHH

B1: Hz77-LALA (antibody, human IgG1, kappa, L234A L235A, V domains shown)
VH: QVQLVQSGAEVKKPGSSVKVSCKASGYSFTGYSVNWVRQAPGQGLEWIGRINPYNGDIFNNQKFKGRATITVDKSTSTAYMELSSLRSEDTAVYYCARGTTVGGAWFAYWGQGTLVTVSS
VL: DIVMTQSPDSLAVSLGERATINCRASESVDSYGYSFLHWYQQKPGQPPKLLIYLASNLESGIPDRFSGSGSGTDFTLTISSLQAEDVAVYYCQQSNEDLMYTFGGGTKVEIKR
notes: Humanized L77S2, human IgG1 L234A/L235A, kappa; also called Humanized 77_01; Hz 77 01
For B1, in [1], inhibition was half-maximal at 0.176 µg/mL (IC50). For the same molecule, the Kd in test [2] was 0.00546 nM; in test [3], 0.0089 nM; in [13] it was at most 0.052 nM. In addition, the off-rate constant (koff) in test [3] was 4.24e-05 s⁻¹; in test [13], at most 4.27e-05 s⁻¹. The binding result in [4], in test [5], in test [6], in test [7], in [8] and in [9] was “no binding (tested: 100 nM)” throughout. Further, the binding result in [10], in test [11] and in test [12] was “no binding (tested: 100 nM)” each time. In addition, the kon in test [14] is 4.78e+06 M⁻¹ s⁻¹; in test [15], 835000 M⁻¹ s⁻¹. Also, the KD in [16] is below 0.1 nM.

B2: L41S5 (antibody, IgG2a, V domains shown)
VH: QVQLQQSGAELVKPGASVKISCKASGYAFSSYWMNWVKQRPGKGLEWIGQIYPGHGDTNYNGKFKGKATLTADKSSSTAYMQLSSLTSEDSAVYFCAKEGSELGRLFAYWGQGTLVTVSA
VL: QIVLTQSPALMSASPGEKVTMTCSASSSVSFMYWYQQKPRSSPKPWIYLTSNLASGVPARFSGSGSGTSYSLTISSMEAEDAATYYCQQWSSNPPTFGGGTKLEIK
notes: also called mouse anti-human ILT4 antibody L41S5
As for B2, in test [17], the “fold decrease of PE-HLA-G MFI” value was at most 14 fold. Further, in test [18], the IC50 turned out to be 0.134 µg/mL.

B3: L45S4 (antibody, IgG2a, V domains shown)
VH: EVQLQQSGPELVKPGASVKISCKASGYTFTDYYMNWVKQSHGKSLEWIGDINPNNGGTSYNQKFKGKATLTVDKSSSTAYMELRSLTSEDSAVYYCARGGAELTGTYWYFDVWGTGTTVTVSS
VL: DIQMTQSPASLSISVGETVTITCRASENIYSNLAWYQQKQGKSPQVLVYGATNLADGVPSRFSGSGSGTQYSLKIKSLQSEDFGSYYCQHFWDSPFTFGSGTKLEIK
notes: also called Murine 45; mouse anti-human ILT4 antibody L45S4
For the molecule B3, the “IL-6 secretion by LPS-stimulated M2 macrophages (MSD), fold over control” value in test [19] stood at 2 fold. Further, in [15], the Kd came out at 0.21 nM, the koff stood at 8.4e-05 s⁻¹ and the kon amounted to 401000 M⁻¹ s⁻¹. Further, in test [17], the “fold decrease of PE-HLA-G MFI” value is at most 69 fold. Besides, the half-maximal inhibitory concentration (IC50) in [18] is 0.044 µg/mL. Moreover, in [20], the IC50 is 0.071 µg/mL.

One may read the IC50 as the concentration that gives 50% inhibition. What is called Kd is a measure of binding affinity in units of concentration. Usually koff stands for the first-order rate constant of dissociation. For orientation: kon means the second-order rate constant of association. Usually KD stands for the concentration at which binding is half-saturated.
